Measured values from publication PMC7367873, “Dissecting the sequence determinants for dephosphorylation by the catalytic subunits of phosphatases PP1 and PP2A” (Nature Communications, 2020).

Assays:
GFP-14-3-3β = GFP-14-3-3β co-IP with LC-MS/MS, untreated GFP-14-3-3β versus GFP control (14-3-3 interactome); format: binding, human; settings: untreated vs GFP; label-free quantification
[1] = test system: GFP-14-3-3β and its binding proteins; assay: GFP-14-3-3β co-IP with LC-MS/MS label-free quantification, untreated versus PP1c-treated; parameters: species or system human; settings: PP1 vs untreated; label-free quantification

| Molecule | Difference (log2), untreated vs GFP (GFP-14-3-3β) [log2] | Difference (log2), PP1 vs untreated [1] [log2] |
| --- | --- | --- |
| SRPR (protein, UniProt P08240 1-638, looked up) Signal recognition particle …: MLDFFTIFSKGGLVLWCFQGVSDSCTGPVNALIRSVLLQERGGNNSFTHEALTLKYKLDNQFELVFVVGFQKILTLTYVDKLIDDVHRLFRDKYRTEIQQQSALSLLNGTFDFQNDFLRLLREAEESSKIRAPTTMKKFEDSEKAKKPVRSMIETRGEKPKEKAKNSKKKGAKKEGSDGPLATSKPVPAEKSGLPVGPENGVELSKEELIRRKREEFIQKHGRGMEKSNKSTKSDAPKEKGKKAPRVWELGGCANKEVLDYSTPTTNGTPEAALSEDINLIRGTGSGGQLQDLDCSSSDDEGAAQNSTKPSATKGTLGGMFGMLKGLVGSKSLSREDMESVLDKMRDHLIAKNVAADIAVQLCESVANKLEGKVMGTFSTVTSTVKQALQESLVQILQPQRRVDMLRDIMDAQRRQRPYVVTFCGVNGVGKSTNLAKISFWLLENGFSVLIAACDTFRAGAVEQLRTHTRRLSALHPPEKHGGRTMVQLFEKGYGKDAAGIAMEAIAFARNQGFDVVLVDTAGRMQDNAPLMTALAKLITVNTPDLVLFVGEALVGNEAVDQLVKFNRALADHSMAQTPRLIDGIVLTKFDTIDDKVGAAISMTYITSKPIVFVGTGQTYCDLRSLNAKAVVAALMKA | -0.7055 | 0.9083 |
| ABCG2 (protein, UniProt Q9UNQ0 1-655, looked up) Broad substrate specificity …: MSSSNVEVFIPVSQGNTNGFPATASNDLKAFTEGAVLSFHNICYRVKLKSGFLPCRKPVEKEILSNINGIMKPGLNAILGPTGGGKSSLLDVLAARKDPSGLSGDVLINGAPRPANFKCNSGYVVQDDVVMGTLTVRENLQFSAALRLATTMTNHEKNERINRVIQELGLDKVADSKVGTQFIRGVSGGERKRTSIGMELITDPSILFLDEPTTGLDSSTANAVLLLLKRMSKQGRTIIFSIHQPRYSIFKLFDSLTLLASGRLMFHGPAQEALGYFESAGYHCEAYNNPADFFLDIINGDSTAVALNREEDFKATEIIEPSKQDKPLIEKLAEIYVNSSFYKETKAELHQLSGGEKKKKITVFKEISYTTSFCHQLRWVSKRSFKNLLGNPQASIAQIIVTVVLGLVIGAIYFGLKNDSTGIQNRAGVLFFLTTNQCFSSVSAVELFVVEKKLFIHEYISGYYRVSSYFLGKLLSDLLPMRMLPSIIFTCIVYFMLGLKPKADAFFVMMFTLMMVAYSASSMALAIAAGQSVVSVATLLMTICFVFMMIFSGLLVNLTTIASWLSWLQYFSIPRYGFTALQHNEFLGQNFCPGLNATGNNPCNYATCTGEEYLVKQGIDLSPWGLWKNHVALACMIVIFLTIAYLKLLFLKKYS | -0.7786 | 0.9597 |
| TMCO1 (protein, UniProt Q9UM00 1-239, looked up) Calcium load-activated …: MPRKRKCDLRAVRVGLLLGGGGVYGSRFRFTFPGCRALSPWRVRVQRRRCEMSTMFADTLLIVFISVCTALLAEGITWVLVYRTDKYKRLKAEVEKQSKKLEKKKETITESAGRQQKKKIERQEEKLKNNNRDLSMVRMKSMFAIGFCFTALMGMFNSIFDGRVVAKLPFTPLSYIQGLSHRNLLGDDTTDCSFIFLYILCTMSIRQNIQKILGLAPSRAATKQAGGFLGPPPPSGKFS | 2.261 | 0.8935 |
| HACD3 (protein, UniProt Q9P035 1-362, looked up) Very-long-chain …: MENQVLTPHVYWAQRHRELYLRVELSDVQNPAISITENVLHFKAQGHGAKGDNVYEFHLEFLDLVKPEPVYKLTQRQVNITVQKKVSQWWERLTKQEKRPLFLAPDFDRWLDESDAEMELRAKEEERLNKLRLESEGSPETLTNLRKGYLFMYNLVQFLGFSWIFVNLTVRFCILGKESFYDTFHTVADMMYFCQMLAVVETINAAIGVTTSPVLPSLIQLLGRNFILFIIFGTMEEMQNKAVVFFVFYLWSAIEIFRYSFYMLTCIDMDWKVLTWLRYTLWIPLYPLGCLAEAVSVIQSIPIFNETGRFSFTLPYPVKIKVRFSFFLQIYLIMIFLGLYINFRHLYKQRRRRYGQKKKKIH | -0.3489 | 0.9389 |
| VDAC2 (protein, UniProt P45880 2-294, looked up) Non-selective voltage-gated …: ATHGQTCARPMCIPPSYADLGKAARDIFNKGFGFGLVKLDVKTKSCSGVEFSTSGSSNTDTGKVTGTLETKYKWCEYGLTFTEKWNTDNTLGTEIAIEDQICQGLKLTFDTTFSPNTGKKSGKIKSSYKRECINLGCDVDFDFAGPAIHGSAVFGYEGWLAGYQMTFDSAKSKLTRNNFAVGYRTGDFQLHTNVNDGTEFGGSIYQKVCEDLDTSVNLAWTSGTNCTRFGIAAKYQLDPTASISAKVNNSSLIGVGYTQTLRPGVKLTLSALVDGKSINAGGHKVGLALELEA | 2.092 | 0.9262 |
| TOMM22 (protein, UniProt Q9NS69 2-142, looked up) Mitochondrial import receptor …: AAAVAAAGAGEPQSPDELLPKGDAEKPEEELEEDDDEELDETLSERLWGLTEMFPERVRSAAGATFDLSLFVAQKMYRFSRAALWIGTTSFMILVLPVVFETEKLQMEQQQQLQQRQILLGPNTGLSGGMPGALPSLPGKI | -0.3585 | 0.9341 |
| RPN1 (protein, UniProt P04843 24-607, looked up) Dolichyl-diphosphooligosacchar …: ASSEAPPLINEDVKRTVDLSSHLAKVTAEVVLAHLGGGSTSRATSFLLALEPELEARLAHLGVQVKGEDEEENNLEVRETKIKGKSGRFFTVKLPVALDPGAKISVIVETVYTHVLHPYPTQITQSEKQFVVFEGNHYFYSPYPTKTQTMRVKLASRNVESYTKLGNPTRSEDLLDYGPFRDVPAYSQDTFKVHYENNSPFLTITSMTRVIEVSHWGNIAVEENVDLKHTGAVLKGPFSRYDYQRQPDSGISSIRSFKTILPAAAQDVYYRDEIGNVSTSHLLILDDSVEMEIRPRFPLFGGWKTHYIVGYNLPSYEYLYNLGDQYALKMRFVDHVFDEQVIDSLTVKIILPEGAKNIEIDSPYEISRAPDELHYTYLDTFGRPVIVAYKKNLVEQHIQDIVVHYTFNKVLMLQEPLLVVAAFYILFFTVIIYVRLDFSITKDPAAEARMKVACITEQVLTLVNKRIGLYRHFDETVNRYKQSRDISTLNSGKKSLETEHKALTSEIALLQSRLKTEGSDLCDRVSEMQKLDAQVKELVLKSAVEAERLVAGKLKKDTYIENEKLISGKRQELVTKIDHILDAL | 0.04558 | 1.002 |
| ALDH18A1 (protein, UniProt P54886 1-795, looked up) Delta-1-pyrroline-5-carboxylat …: MLSQVYRCGFQPFNQHLLPWVKCTTVFRSHCIQPSVIRHVRSWSNIPFITVPLSRTHGKSFAHRSELKHAKRIVVKLGSAVVTRGDECGLALGRLASIVEQVSVLQNQGREMMLVTSGAVAFGKQRLRHEILLSQSVRQALHSGQNQLKEMAIPVLEARACAAAGQSGLMALYEAMFTQYSICAAQILVTNLDFHDEQKRRNLNGTLHELLRMNIVPIVNTNDAVVPPAEPNSDLQGVNVISVKDNDSLAARLAVEMKTDLLIVLSDVEGLFDSPPGSDDAKLIDIFYPGDQQSVTFGTKSRVGMGGMEAKVKAALWALQGGTSVVIANGTHPKVSGHVITDIVEGKKVGTFFSEVKPAGPTVEQQGEMARSGGRMLATLEPEQRAEIIHHLADLLTDQRDEILLANKKDLEEAEGRLAAPLLKRLSLSTSKLNSLAIGLRQIAASSQDSVGRVLRRTRIAKNLELEQVTVPIGVLLVIFESRPDCLPQVAALAIASGNGLLLKGGKEAAHSNRILHLLTQEALSIHGVKEAVQLVNTREEVEDLCRLDKMIDLIIPRGSSQLVRDIQKAAKGIPVMGHSEGICHMYVDSEASVDKVTRLVRDSKCEYPAACNALETLLIHRDLLRTPLFDQIIDMLRVEQVKIHAGPKFASYLTFSPSEVKSLRTEYGDLELCIEVVDNVQDAIDHIHKYGSSHTDVIVTEDENTAEFFLQHVDSACVFWNASTRFSDGYRFGLGAEVGISTSRIHARGPVGLEGLLTTKWLLRGKDHVVSDFSEHGSLKYLHENLPIPQRNTN | -0.8261 | 0.9496 |
| DPM1 (protein, UniProt O60762 2-260, looked up) Dolichol-phosphate …: ASLEVSRSPRRSRRELEVRSPRQNKYSVLLPTYNERENLPLIVWLLVKSFSESGINYEIIIIDDGSPDGTRDVAEQLEKIYGSDRILLRPREKKLGLGTAYIHGMKHATGNYIIIMDADLSHHPKFIPEFIRKQKEGNFDIVSGTRYKGNGGVYGWDLKRKIISRGANFLTQILLRPGASDLTGSFRLYRKEVLEKLIEKCVSKGYVFQMEMIVRARQLNYTIGEVPISFVDRVYGESKLGGNEIVSFLKGLLTLFATT | 1.004 | 0.914 |
| G3BP2 (protein, UniProt Q9UN86 2-482, looked up) Ras GTPase-activating …: VMEKPSPLLVGREFVRQYYTLLNKAPEYLHRFYGRNSSYVHGGVDASGKPQEAVYGQNDIHHKVLSLNFSECHTKIRHVDAHATLSDGVVVQVMGLLSNSGQPERKFMQTFVLAPEGSVPNKFYVHNDMFRYEDEVFGDSEPELDEESEDEVEEEQEERQPSPEPVQENANSGYYEAHPVTNGIEEPLEESSHEPEPEPESETKTEELKPQVEEKNLEELEEKSTTPPPAEPVSLPQEPPKAFSWASVTSKNLPPSGTVSSSGIPPHVKAPVSQPRVEAKPEVQSQPPRVREQRPRERPGFPPRGPRPGRGDMEQNDSDNRRIIRYPDSHQLFVGNLPHDIDENELKEFFMSFGNVVELRINTKGVGGKLPNFGFVVFDDSEPVQRILIAKPIMFRGEVRLNVEEKKTRAARERETRGGGDDRRDIRRNDRGPGGPRGIVGGGMMRDRDGRGPPPRGGMAQKLGSGRGTGQMEGRFTGQRR | 0.002451 | 0.991 |
